The values that follow come from patent US6861508B2, “Transcriptional intermediary factor-2” (Institut National de la Sante et de la Recherche Medicale, priority 1996, dated 2005).

First the molecules themselves.
B2: GST-hERα(DEF) (pGEX2T-hERα(DEF), amino acids 282-595) (receptor, human, UniProt P03372 282-595, looked up)
chain: SAGDMRAANLWPSPLMIKRSKKNSLALSLTADQMVSALLDAEPPILYSEYDPTRPFSEASMMGLLTNLADRELVHMINWAKRVPGFVDLTLHDQVHLLECAWLEILMIGLVWRSMEHPGKLLFAPNLLLDRNQGKCVEGMVEIFDMLLATSSRFRMMNLQGEEFVCLKSIILLNSGVYTFLSSTLKSLEEKDHIHRVLDKITDTLIHLMAKAGLTLQQQHQRLAQLLLILSHIRHMSNKGMEHLYSMKCKNVVPLYDLLLEMLDAHRLHAPTSRGGASVEETDQSHLATAGSTSSHSLQKYYITGEAEGFPATV
notes: range 282-595; Bacterially produced; also used 32P-labelled as Far-Western probe; also called GST-ER; GST-ER(DEF); not shown: glutathione-S-transferase (GST) of pGEX2T (Pharmacia)
B4: GST-hRARα(DEF) (pGEX2T-hRARα(DEF), amino acids 153-462) (receptor, human, UniProt P10276 153-462, looked up)
chain: MSKESVRNDRNKKKKEVPKPECSESYTLTPEVGELIEKVRKAHQETFPALCQLGKYTTNNSSEQRVSLDIDLWDKFSELSTKCIIKTVEFAKQLPGFTTLTIADQITLLKAACLDILILRICTRYTPEQDTMTFSDGLTLNRTQMHNAGFGPLTDLVFAFANQLLPLEMDDAETGLLSAICLICGDRQDLEQPDRVDMLQEPLLEALKVYVRKRRPSRPHMFPKMLMKITDLRSISAKGAERVITLKMEIPGSMPPLIQEMLENSEGLDTLSGQPGGGGRDGGGLAPPPGSCSPSLSPSSNRSSPATHSP
notes: range 153-462; Bacterially produced; also called GST-RAR; GST-RARα(DEF); not shown: glutathione-S-transferase (GST) of pGEX2T (Pharmacia)

One assay concerns ER. The assay is described as follows: CAT reporter transactivation by ER with TIF2/TIF2.1 coexpression. The assay is classed as cell-based. To be noted: HeLa, Cos-1 cells. Here is the method: (b) HeLa cells were cotransfected with 5 μg Vit-tk-CAT and the indicated amount of HEGO, with or without 5 μg TIF2.1 in the presence of […] E2 or OHT. CAT activity is given relative to that induced by 100 ng HEGO in presence of E2.
(d) HeLa (lanes 1-12) or Cos-1 lanes 13-18) cells were transfected with 5 fig GRE-TATA-CAT (lanes 1-6) or 1 μg MMTV-CAT (lanes 7-18) together with 1 μg hPR with or without 3 μg TIF 2 in presence or absence of […] of the indicated ligand. • (e) Cos-1 cells were cotransfected with 1 μg Vit-tk-CAT and 1 μg HEGO with or without 3 μg TIF2 in presence or absence of 10^−6 M of the indicated ligands.
TIF2-stimulation is to some extent affected by the promoter environment of the responsive gene, as the TIF2 effect on PR/5020-induced transactivation was greater for a complex (MMTV) than for a minimal (GRE-TATA) promoter, although the latter was also reproducibly stimulated (FIG. 5d).

The subject of a further assay is ER, RARα and RXRα LBDs. As to the kind of experiment: GST pull-down of TIF2 polypeptides with NR LBDs. In kind it is binding. To be noted: in vitro, with or without 10^−6 M ligand. Here is the method: (b) Mapping of the nuclear receptor-interacting domain of TIF2.
(c-d) Interaction of TIF2 NID mutants with NRs in vitro. […] For quantification of point mutant interactions, see below.
(e-f) Effect of TIF2 NID point mutations on stimulation of NR AF-2 activity. Cos-1 cells were cotransfected with 1 μg of the (17m)5-TATA-CAT reporter, 0.2 μg of GAL-hERα(EF) or GAL-mRXRα(DE), and 2.5 μg of the TIF2.1 wildtype or mutated fragments, as indicated. […] Each bar represents the mean value obtained from at least three (interaction) or at least four (transactivation) experiments, respectively; standard deviations are indicated. Note that the absolute values for TIF2.1 wildtype activity varied by ±16% when cotransfected with GAL-hERα(EF) and by ±34% when cotransfected with GAL-mRXRα(DE). In the in-vitro-interaction assays, the affinity of the TIF2.1 wildtype standard varied by less than ±25%. Expression levels of TIF2 mutants in the cells were verified by Western blot (not shown) with mouse monoclonal antibody 3Ti3F1, which is directed against an epitope outside the mutated area.
To further delineate the TIF2 NR interaction domain (NID), we studied the interaction between a series of TIF2 deletion mutants and the ER or RARα LBDs, using GST-fusion protein-based in vitro assays. In both cases, an NWD was mapped to the central region of TIF2 (amino acids 624-869 in mutant TIF2.5; see FIGS. 7a and b). No additional NWD could be identified in the N- or C-termini of TIF2 (FIGS. 7a and b; mutants TIF2.0, TIF2.2 and TIF2.7). Note that, in contrast, SRC-1, a paralogue of TIF2, apparently harbours two distinct non-contiguous NIDs located in the central and C-terminal regions (Onate, S. A. et al., Science 270:1354-1357 (1995), Yao, T. P. et al., Proc. Natl. Acad. Sci. USA 93:10626-10631 (1996); Zhu, Y. et al., Gene Epression 6:185-195 (1996)).

A further assay relates to GAL4 reporter. The assay is described as follows: GAL4 DBD-TIF2 fusion CAT reporter transactivation assay. The assay is classed as cell-based. Here is the method:
(a) HeLa cells were cotransfected with 1 μg (17m)5-βG-CAT and 10 μg GAL(1-147) or 1,3 and 10 μg GAL(1-147)-TIF2.1, respectively.
(c) Analysis of the transcriptional activity of GAL-TIF2 fusion proteins. Cos-1 and HeLa cells were transfected with 3 lag of plasmids expressing different regions of TIF2 fised to the DNA-binding domain of the yeast transcription factor GALA together with 1 μg of the (7m)5-G-CAT reporterplasmid. CAT assays were performed as described (Bocquel, M. T. et al., Nucl Acids Res. 17:2581-2595 (1989)). Quantitative data on CAT reporter expression were obtained either by phosphoimager analysis (BAS2000, Fuji) of ^14C-labeled CAT reaction products separated by thin-layer chromatography, or using the CAT ELISA Kit (Boehringer Mannheim). In all cases, CAT activities were normalized to the β-galactosidase concentrations resulting from cotransfection of 1 μg of pCMVPGal (gift from T. Lerouge) as internal control. Fold inductions above the GAL4 DBD value are indicated. The mean and standard deviation of at least three experiments are shown. A representative Western blot, illustrating the expression levels of the GAL4-TIF2 fusion proteins, expressed from 10 μg of the corresponding expression vectors, is shown on the left.
(b) Transcriptional activation of TIF2 AF-1 mutants. Cos-1 and HeLa cells were cotransfected with 3 μg of plasmids expressing different mutants of the TIF2 AF-1 fused to the DNA-binding domain of the yeast transcription factor GAL4 together with 1 μg of the (17m)5-G-CAT reporter plasmid. Fold inductions above the activation seen with the GAL4 DBD alone are indicated. The values represent the mean of at least three experiments.
(a) Transcriptional activation by TIF2.13 and TIF2.13 mutants. Cos-1 and HeLa cells were cotransfected with 3 μg of plasmids expressing the TIF2.13 region and the indicated TIF2.13 mutants fused to the DNA-binding domain of the yeast transcription factor GALA together with 1 μg of the (17m)5-G-CAT reporter plasmid. Fold inductions above the GAL4 DBD 1-fold value are indicated. The mean and standard deviation obtained from at least four experiments are shown. The expression levels of the GAL4-TIF2.13 fusion proteins were confirmed by western blotting (data not shown).
Transient transfections of HeLa and Cos-1 cells were performed as described (Gronemeyer et al., (1987); Bocquel, M. T. et al., Nucl. Acids Res. 17:2581-2595 (1989)).

Assay [1] deals with B2. The assay is described as follows: GST pull-down with 35S in-vitro-translated TIF2 polypeptides (FIG. 7a-b).
The target of assay [2] is B4. The assay is described as above.
For assay [3], the target named is T1, transcriptional intermediary factor-2 (TIF2) (human, UniProt Q15596 1-1464).
T1 construct: Full length: endogenous protein of cell extracts (HeLa, MCF-7 and others), protein from transfected Cos-1 cells, or in-vitro-translated; also called 160-kDa protein
The assay is described as follows: Far-Western blot with E2-bound 32P-GST-ER(DEF).

Assay [4] concerns the target T2, TIF2.1 (TIF2 amino acids 624 to 1287) (human, UniProt Q15596 624-1287).
T2 construct: Form without a stated tag: expression-library clone, expressed in Cos cells from pSG5, or in-vitro-translated; also called cytoplasmic TIF2.1 polypeptide
T2 sequence: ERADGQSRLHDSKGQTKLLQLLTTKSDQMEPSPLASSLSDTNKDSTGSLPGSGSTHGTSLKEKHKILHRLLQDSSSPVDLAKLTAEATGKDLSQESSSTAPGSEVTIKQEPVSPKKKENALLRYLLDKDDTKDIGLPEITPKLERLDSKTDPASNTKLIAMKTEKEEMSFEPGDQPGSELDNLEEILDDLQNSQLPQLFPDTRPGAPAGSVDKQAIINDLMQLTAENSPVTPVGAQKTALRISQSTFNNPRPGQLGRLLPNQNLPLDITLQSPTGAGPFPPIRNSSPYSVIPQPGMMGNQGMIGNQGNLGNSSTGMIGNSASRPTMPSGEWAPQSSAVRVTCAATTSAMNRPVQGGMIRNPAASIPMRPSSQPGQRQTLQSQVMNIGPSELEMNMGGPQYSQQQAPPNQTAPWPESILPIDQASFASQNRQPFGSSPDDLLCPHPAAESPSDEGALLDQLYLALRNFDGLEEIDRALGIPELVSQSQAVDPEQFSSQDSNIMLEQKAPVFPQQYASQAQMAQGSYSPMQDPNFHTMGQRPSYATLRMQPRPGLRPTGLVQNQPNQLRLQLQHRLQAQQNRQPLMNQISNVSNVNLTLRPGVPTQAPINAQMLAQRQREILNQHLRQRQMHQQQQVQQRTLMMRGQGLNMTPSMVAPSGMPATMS
As to the kind of experiment: Far-Western blot with 32P-labelled NR LBD probe, agonist present.

Assay [5] concerns the target T3, (His)6-TIF2.1, E. coli-expressed purified recombinant TIF2.1 (human, UniProt Q15596 624-1287).
T3 construct: also called His-tagged TIF2.1; purified TIF2.1 protein; not shown: (His)6 tag of pET15b
T3 sequence: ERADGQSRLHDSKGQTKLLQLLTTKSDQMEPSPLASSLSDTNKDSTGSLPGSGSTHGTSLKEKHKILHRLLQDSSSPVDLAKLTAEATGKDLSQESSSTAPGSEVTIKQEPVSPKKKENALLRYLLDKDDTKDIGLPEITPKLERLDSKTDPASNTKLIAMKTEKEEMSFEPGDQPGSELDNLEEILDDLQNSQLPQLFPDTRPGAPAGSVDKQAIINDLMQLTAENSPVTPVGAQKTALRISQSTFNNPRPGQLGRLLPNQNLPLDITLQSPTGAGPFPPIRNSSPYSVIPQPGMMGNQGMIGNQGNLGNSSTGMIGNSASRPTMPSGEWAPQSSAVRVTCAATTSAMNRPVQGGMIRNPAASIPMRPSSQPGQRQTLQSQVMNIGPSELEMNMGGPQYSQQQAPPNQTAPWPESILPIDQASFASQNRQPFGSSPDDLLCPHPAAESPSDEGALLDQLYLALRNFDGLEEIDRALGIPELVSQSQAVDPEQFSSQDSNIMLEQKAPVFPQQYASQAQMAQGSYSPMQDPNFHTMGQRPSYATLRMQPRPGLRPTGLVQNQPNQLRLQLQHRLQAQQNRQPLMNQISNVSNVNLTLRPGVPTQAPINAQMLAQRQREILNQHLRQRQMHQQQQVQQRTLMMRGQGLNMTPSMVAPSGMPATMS
The assay is described as follows: GST interaction assay with E. coli-expressed TIF2.1, Western blot, agonist present. On the technique in general: In western blotting, separated proteins are transferred to a membrane and probed.

T1 sequence (Q15596 whole entry P1420S): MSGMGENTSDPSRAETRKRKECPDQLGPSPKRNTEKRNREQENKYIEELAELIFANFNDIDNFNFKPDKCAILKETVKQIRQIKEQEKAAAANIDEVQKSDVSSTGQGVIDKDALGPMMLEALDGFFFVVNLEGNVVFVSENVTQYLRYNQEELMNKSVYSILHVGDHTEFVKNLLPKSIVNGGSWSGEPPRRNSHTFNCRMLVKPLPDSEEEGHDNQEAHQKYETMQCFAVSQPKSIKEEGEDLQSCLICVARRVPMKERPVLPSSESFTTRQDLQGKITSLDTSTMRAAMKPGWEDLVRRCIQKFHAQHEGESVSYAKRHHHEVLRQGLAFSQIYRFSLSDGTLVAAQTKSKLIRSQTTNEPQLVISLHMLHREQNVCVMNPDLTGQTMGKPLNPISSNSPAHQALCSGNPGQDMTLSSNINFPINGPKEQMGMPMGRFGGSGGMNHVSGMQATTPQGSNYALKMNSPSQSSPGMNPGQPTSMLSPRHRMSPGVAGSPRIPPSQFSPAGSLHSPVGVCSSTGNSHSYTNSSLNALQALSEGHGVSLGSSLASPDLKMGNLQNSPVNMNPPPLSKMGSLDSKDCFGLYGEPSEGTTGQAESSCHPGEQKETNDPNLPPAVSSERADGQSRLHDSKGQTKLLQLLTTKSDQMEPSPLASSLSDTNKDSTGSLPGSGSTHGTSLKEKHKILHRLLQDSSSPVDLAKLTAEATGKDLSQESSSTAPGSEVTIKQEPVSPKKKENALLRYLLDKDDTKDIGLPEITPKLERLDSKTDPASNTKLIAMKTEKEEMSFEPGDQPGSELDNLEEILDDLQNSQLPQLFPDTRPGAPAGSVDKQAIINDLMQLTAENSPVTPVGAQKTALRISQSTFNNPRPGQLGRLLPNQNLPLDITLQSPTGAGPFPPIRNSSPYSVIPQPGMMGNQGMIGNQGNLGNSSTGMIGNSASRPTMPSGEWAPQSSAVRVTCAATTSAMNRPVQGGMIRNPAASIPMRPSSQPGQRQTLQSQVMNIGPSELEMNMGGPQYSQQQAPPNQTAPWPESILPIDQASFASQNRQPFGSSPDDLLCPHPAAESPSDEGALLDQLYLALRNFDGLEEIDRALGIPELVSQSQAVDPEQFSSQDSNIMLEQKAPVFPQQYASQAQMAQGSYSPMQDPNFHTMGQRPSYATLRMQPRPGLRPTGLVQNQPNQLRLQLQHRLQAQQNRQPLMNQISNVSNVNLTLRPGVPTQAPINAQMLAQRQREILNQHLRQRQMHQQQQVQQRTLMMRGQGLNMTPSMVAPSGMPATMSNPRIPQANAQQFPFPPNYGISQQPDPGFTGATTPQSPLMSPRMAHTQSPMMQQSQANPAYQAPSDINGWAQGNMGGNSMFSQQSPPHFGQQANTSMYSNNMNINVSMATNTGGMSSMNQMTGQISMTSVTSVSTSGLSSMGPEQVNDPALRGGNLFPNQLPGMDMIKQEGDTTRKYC

For the molecule `CC/C(=C(\c1ccc(O)cc1)c1ccc(OCCN(C)C)cc1)c1ccccc1` [hydroxytamoxifen], the “stimulation by TIF2.1 of transactivation by antagonist-bound ER” value in the assay on ER is on record as “did not lead to any stimulation”.

B1: TIF2.8 (TIF2 amino acids 1010-1179) (other)
chain: GPSELEMNMGGPQYSQQQAPPNQTAPWPESILPIDQASFASQNRQPFGSSPDDLLCPHPAAESPSDEGALLDQLYLALRNFDGLEEIDRALGIPELVSQSQAVDPEQFSSQDSNIMLEQKAPVFPQQYASQAQMAQGSYSPMQDPNFHTMGQRPSYATLRMQPRPGLRPT
notes: In-vitro-translated; also called minimal AD1
As to B1, the “binding to NRs (ER, RARα LBDs)” value in the assay on ER, RARα and RXRα LBDs is listed as “cannot bind NRs”. Moreover, the “transcriptional activation of GAL4 reporter by GAL4 DBD fusion” value in the assay with GAL4 reporter (Cos-1 and/or HeLa cells) was “able to activate transcription”. The “increased transactivation relative to parent fragment” value with GAL4 reporter (Cos-1 cells) was determined as 2 fold; in the assay with GAL4 reporter (HeLa cells), 10 fold. In addition, the binding result in assay [1] and in assay [2] was “no binding” each time.
Regarding B2, the binding result in assay [3] and in assay [4] was “binds” throughout.

B3: TIF2.12 (TIF2 amino acids 940-1131) (other)
chain: IGNSASRPTMPSGEWAPQSSAVRVTCAATTSAMNRPVQGGMIRNPAASIPMRPSSQPGQRQTLQSQVMNIGPSELEMNMGGPQYSQQQAPPNQTAPWPESILPIDQASFASQNRQPFGSSPDDLLCPHPAAESPSDEGALLDQLYLALRNFDGLEEIDRALGIPELVSQSQAVDPEQFSSQDSNIMLEQKAP
notes: In-vitro-translated
For the molecule B3, the binding result in assay [1] and in assay [2] was “no binding” in each case.
As to B4, the binding result in assay [4] and in assay [5] was “binds” throughout.
